± gives the standard error. Variants at the floor of the assay were thinned out.
B1: glmS ribozyme (parent)
chain: AUAAAAGCGCCAGAACUACAGAAAUGUAGUUGACGAGGAGGAGGUUUAUCGAAUUUUCGGCGGAUGCCUCCAAA

Variants of: B1
Assay: self-cleavage kobs at 2500 uM GlcN6P; higher = faster cleavage; RNA array
Conditions: with glucosamine-6-phosphate
Outline: (§1)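 Tracking of barcoded ribozyme variants used a hybridised Cy3 probe at 37 °C, after in situ transcription by E. coli RNA polymerase on sequenced MiSeq chips. The flowed solution held 40 μM to 10 mM glucosamine-6-phosphate in HEPES/KCl/Mg(OAc)2 buffer, and imaging ran over ~14 h. kobs was taken from exponential decay fits of normalised per-tile medians, and kcat and KM from weighted Michaelis–Menten fits.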

| Variant | self-cleavage kobs at 2500 uM GlcN6P [s⁻¹] |
| --- | --- |
| G38C C58G G60U | < 1e-05 |
| C8U A15C G63C | < 1e-05 |
| G35C C58G G60U U65C | < 1e-05 |
| C10A G40A U55A | < 1e-05 |
| A6U G38A C50G C67U | 6.17e-05 ± 1.7e-05 |
| A6C G13C U45C | < 1e-05 |
| C8U C16U G60C C71G | < 1e-05 |
| A12G A39U U47G | 8.38e-05 ± 1.6e-05 |
| A6U C11A G62A | < 1e-05 |
| A12C C50U G60U C67U | < 1e-05 |
| A14C A39U G43U A64U | < 1e-05 |
| C34G G37C G60U G63C | < 1e-05 |
| C11A U30G G43C C68G C71U | 0.000269 ± 9.8e-05 |
| U31G A39G U57A A64G | 5.58e-05 ± 2e-05 |
| A14U C16A U31G G32U | 0.000112 ± 4.4e-05 |
| G7U C34U G60U A64G | < 1e-05 |
| G9A U31G G40C | < 1e-05 |
| G9U U47G C68U | < 1e-05 |
| C16A G40U U54C C71U | 8.78e-05 ± 1.5e-05 |
| G7C C10G G51U | < 1e-05 |
| U30C U45A U55A C67U | 0.00196 ± 0.00072 |
| U31A A52G C70G | 5.02e-05 ± 1.1e-05 |
| U45G U47A | 0.00816 ± 0.0022 |
| A12U G35A A39G U45C C61U | < 1e-05 |

| Variant | self-cleavage kobs at 2500 uM GlcN6P [s⁻¹] |
| --- | --- |
| G29U A36U C70G | 0.000444 ± 0.0001 |
| A42U G59U C70G | < 1e-05 |
| U2G U46G A53U | 0.00369 ± 0.0011 |
| A36G G43U C70G | < 1e-05 |
| A33U A48G U55G | < 1e-05 |
| C16U U46G U47C C70U | 0.00139 ± 0.00038 |
| A36C A42C U54C | < 1e-05 |
| G38C U49G U55A U65G | < 1e-05 |
| A36C G40U U55A U56G C70G | < 1e-05 |
| U30C G35C C50A C68A | < 1e-05 |
| A36G G43A A48U A52G | < 1e-05 |
| A15U U30C U31C G40U A64U G66A | < 1e-05 |
| G7A A12G G44A U47G | < 1e-05 |
| G41U A42C C61A | < 1e-05 |
| A14G G35U G37A | < 1e-05 |
| A39G G51A C68U | < 1e-05 |
| A15G U45C U65G C67U | 0.000125 ± 3.7e-05 |
| C10U G29C A36G G41U U54A | < 1e-05 |
| A22C C34G A42C C50U G66U C68U U69G C70G C71U | < 1e-05 |
| C8A A39G A48U | < 1e-05 |
| A33G G37A A52U | < 1e-05 |
| G37A G44U G51U G66A | < 1e-05 |
| U30C A39U U56G | 2.5e-05 ± 1.2e-05 |
| A52U G60A G66U | < 1e-05 |

| Variant | self-cleavage kobs at 2500 uM GlcN6P [s⁻¹] |
| --- | --- |
| A14U U46C U47G | 8.01e-05 ± 2.2e-05 |
| G9C A33C G38C A39C U65G | < 1e-05 |
| C8U U30A U46G | < 1e-05 |
| C11A U30G A53U | 0.00017 ± 4.1e-05 |
| C16A C34U G51U | < 1e-05 |
| G32U G37C A42C | < 1e-05 |
| G44C A48G | < 1e-05 |
| A14G U57A U65G | 4.18e-05 ± 1.4e-05 |
| G32A C68G C70G | < 1e-05 |
| A12G A14U G41A G43A C50U G51A | < 1e-05 |
| G9A G43C U45G U65C | < 1e-05 |
| C16U G32A G41A | 0.000133 ± 2.7e-05 |
| A12U C50G G66C C70A | 5.12e-05 ± 2e-05 |
| A33C G37A G40C A42C | < 1e-05 |
| C8U A15U G44C | < 1e-05 |
| U31G G41U G62U G66U | < 1e-05 |
| A36U G43C A53C C71G | < 1e-05 |
| A15G G35C A64G | < 1e-05 |
| U45G C50U U55A | < 1e-05 |
| G9A C50G C67G | 9.36e-05 ± 2.6e-05 |
| C10A G44C A48C | < 1e-05 |
| G7C A12G A39U A42C U65C C71A | < 1e-05 |
| C11G G37A U49G G60U | < 1e-05 |
| A15U U30C C61G | < 1e-05 |

| Variant | self-cleavage kobs at 2500 uM GlcN6P [s⁻¹] |
| --- | --- |
| G37A A39C G63U | < 1e-05 |
| G9U G29A A33U | < 1e-05 |
| A48C G63A C71A | < 1e-05 |
| C16G G38A U47C G62A | < 1e-05 |
| A12C C58U G60U | < 1e-05 |
| C16A A36G C67G | < 1e-05 |
| G29U A36U A42U U56G G66U | < 1e-05 |
| A53U U56G U65G | 0.000913 ± 0.00018 |
| A6U C16G G40C G41A C70A | < 1e-05 |
| A14U G40C A64G | 6.98e-05 ± 1.7e-05 |
| A36U G40U A64C | < 1e-05 |
| A48G U55A C70A | 8.47e-05 ± 2.9e-05 |
| C16A G41A A42U | < 1e-05 |
| C8A G13A U56C | < 1e-05 |
| A33C A36U G37A U47C | < 1e-05 |
| U46G U47A C71A | 0.00116 ± 0.00028 |
| U45C A48C U65G C70G | < 1e-05 |
| C10G C11U G32A U45C | < 1e-05 |
| U31G G40U G60A | < 1e-05 |
| U31G A53U C70A | 0.000207 ± 6.4e-05 |
| G40U G51U G59A | < 1e-05 |
| G40C U47G G51A | < 1e-05 |
| G37U G40U U55C | < 1e-05 |
| A28C U49G U55A | 0.000284 ± 7.5e-05 |

| Variant | self-cleavage kobs at 2500 uM GlcN6P [s⁻¹] |
| --- | --- |
| C11G C67A | < 1e-05 |
| A15U A36G A39U | < 1e-05 |
| U30C G40C G62A | < 1e-05 |
| C8U G32A A33U G35C G37U A39U G51C G60C | < 1e-05 |
| G35U U47A C61A | < 1e-05 |
| A14C G26U G62U C68U | < 1e-05 |
| A6U G51C U55A G66A | < 1e-05 |
| G35U G37U G43U G44A | < 1e-05 |
| G7A G29U G59A G62U | < 1e-05 |
| A39U A53U C70G | 0.0003 ± 7.6e-05 |
| C10G G38U | < 1e-05 |
| C34U C58U G60A | < 1e-05 |
| A15U A33C U45G G51U U55G | < 1e-05 |
| A6U C10U A15U A53G | < 1e-05 |
| A15C A36C A48U U57C | < 1e-05 |
| U31A A39U C70U | 0.00182 ± 0.0009 |
| C16G G43A U57A G66U U69A | < 1e-05 |
| C11G C34A G37U | < 1e-05 |
| A12G U30G U45G U46A C68U | < 1e-05 |
| A12G U30G U46G | < 1e-05 |
| U30A A36C U45C | < 1e-05 |
| G29U G32C A42C U57G | < 1e-05 |
| U30A G63A U69C | < 1e-05 |
| A15U C50G C70A | 0.000427 ± 0.00013 |

| Variant | self-cleavage kobs at 2500 uM GlcN6P [s⁻¹] |
| --- | --- |
| A33C A39G G40U U49A | < 1e-05 |
| G9U G35A G59A C71U | < 1e-05 |
| G29A U65C | 6.71e-05 ± 1.9e-05 |
| A15G U31G G32U U45A | 0.000424 ± 0.00012 |
| A15C U47G C68G | 5.59e-05 ± 1.6e-05 |
| A12C A36C C71A | < 1e-05 |
| G62C A64G C70A | < 1e-05 |
| A39U G44U A53U | 0.000583 ± 0.00016 |
| C8G A12U U31A G51C | < 1e-05 |
| C16A G66A C71G | 5.24e-05 ± 2.5e-05 |
| A15C C16U U17A C70G | 7.4e-05 ± 1.7e-05 |
| C8A C11U A48U U56A | < 1e-05 |
| A15C G37U A39C G41A G63U G66C | < 1e-05 |
| C16A U30A U65A | 5.07e-05 ± 1.8e-05 |
| U31C A36U U47C | < 1e-05 |
| G7A G40A A53U | < 1e-05 |
| G7U G29C A42C | < 1e-05 |
| U45G U49A U55C | < 1e-05 |
| G9A G40U G62U A64U | < 1e-05 |
| A14G G40A G41C | 0.00048 ± 0.0001 |
| G37C G44A G51U G59C | < 1e-05 |
| G13A C34U G43U | < 1e-05 |
| U31G A39U U55G C71U | 0.0043 ± 0.00067 |
| G38A C50G U57C | 0.000163 ± 6.6e-05 |

| Variant | self-cleavage kobs at 2500 uM GlcN6P [s⁻¹] |
| --- | --- |
| U30G A42C A52C G60U | < 1e-05 |
| A33U A48U G59A C61U C71U | < 1e-05 |
| U49C U55A G62C | < 1e-05 |
| A12C A36U U46G | < 1e-05 |
| G38C C50A U65A | < 1e-05 |
| C10G A12U C50G | 0.000103 ± 2.4e-05 |
| C34U C50G C68A U69A | 0.000141 ± 4.9e-05 |
| C8A U55A C71U | < 1e-05 |
| A14G A36G U56G G59C G62U | < 1e-05 |
| G43C G51C U65A | < 1e-05 |
| A12G G32C | 2.23e-05 ± 9.3e-06 |
| G41U U54A U55A U56A C67U | < 1e-05 |
| G7U A36U C68U | < 1e-05 |
| A14U A15U U56A G59C G63C | < 1e-05 |
| G13U U45A A52G | 5.37e-05 ± 2.1e-05 |
| G7U U57G G60U | < 1e-05 |
| A15U G41A C50G C71U | < 1e-05 |
| A15G U30A C71U | 0.0164 ± 0.0034 |

Variants of: B1
Assay: self-cleavage kobs at 10000 uM GlcN6P; higher = faster cleavage; RNA array
Conditions: with glucosamine-6-phosphate
Outline: as §1

| Variant | self-cleavage kobs at 10000 uM GlcN6P [s⁻¹] |
| --- | --- |
| C11A U30G G43C C68G C71U | 0.000118 ± 3e-05 |
| A14U C16A U31G G32U | 9.26e-05 ± 2.2e-05 |
| G7U C34U G60U A64G | < 1e-05 |
| U31A A52G C70G | 6.16e-05 ± 1.8e-05 |
| U30C A39U U56G | 9.2e-05 ± 2.1e-05 |
| A14G U57A U65G | 6.87e-05 ± 1.5e-05 |
| G9A G43C U45G U65C | < 1e-05 |
| C16U G32A G41A | 0.00033 ± 9.1e-05 |
| A15U A36G A39U | < 1e-05 |
| A39U A53U C70G | 0.000276 ± 5e-05 |
| G29A U65C | 8.99e-05 ± 3.1e-05 |
| A12G G32C | 3.88e-05 ± 7.6e-06 |
